US20210032299A1 (Eli Lilly, published 2021)
Starred links: 1 amine or outer side, 2 acyl side, 3 side chain; linkers in the order of their positions; H or OH if unused. Non-standard residues stand in square brackets, D forms with d. Groups on a side chain read outwards from the residue. No end group written: not given here. *: point of attachment. C20 diacid = O=C(O)CCCCCCCCCCCCCCCCCCC(=O)*; γGlu = O=C(O)[C@H](CCC(=O)[*:2])N[*:1]; AEEA = NCCOCCOCC(=O)O

T1: human glucose-dependent insulinotropic peptide receptor (human, UniProt P48546 22-466)
T1 sequence (looked up): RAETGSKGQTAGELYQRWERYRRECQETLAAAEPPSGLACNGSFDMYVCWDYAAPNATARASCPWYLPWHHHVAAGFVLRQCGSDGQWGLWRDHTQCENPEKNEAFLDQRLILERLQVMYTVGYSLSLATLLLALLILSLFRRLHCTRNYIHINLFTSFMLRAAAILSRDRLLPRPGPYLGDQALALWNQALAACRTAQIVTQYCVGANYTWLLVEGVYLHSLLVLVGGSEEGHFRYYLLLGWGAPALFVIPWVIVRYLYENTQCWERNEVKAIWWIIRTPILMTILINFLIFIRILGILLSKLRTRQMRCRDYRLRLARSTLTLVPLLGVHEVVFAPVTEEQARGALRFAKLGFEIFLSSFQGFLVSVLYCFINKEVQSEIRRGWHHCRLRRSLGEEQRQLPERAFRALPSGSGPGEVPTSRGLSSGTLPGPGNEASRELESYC

B1: Example 15 (peptide)
peptide: Y[dA]EGTFISDYSILLDKK([AEEA-AEEA-γGlu-C20 diacid])HQQDFVNYLLAQGPSSGAPPPS-NH2
modifications: N-terminus assumed
SMILES: CC[C@H](C)[C@H](NC(=O)[C@H](CO)NC(=O)[C@H](Cc1ccc(O)cc1)NC(=O)[C@H](CC(=O)O)NC(=O)[C@H](CO)NC(=O)[C@@H](NC(=O)[C@H](Cc1ccccc1)NC(=O)[C@@H](NC(=O)CNC(=O)[C@H](CCC(=O)O)NC(=O)[C@@H](C)NC(=O)[C@@H](N)Cc1ccc(O)cc1)[C@@H](C)O)[C@@H](C)CC)C(=O)N[C@@H](CC(C)C)C(=O)N[C@@H](CC(C)C)C(=O)N[C@@H](CC(=O)O)C(=O)N[C@@H](CCCCN)C(=O)N[C@@H](CCCCNC(=O)COCCOCCNC(=O)COCCOCCNC(=O)CC[C@H](NC(=O)CCCCCCCCCCCCCCCCCCC(=O)O)C(=O)O)C(=O)N[C@@H](Cc1c[nH]cn1)C(=O)N[C@@H](CCC(N)=O)C(=O)N[C@@H](CCC(N)=O)C(=O)N[C@@H](CC(=O)O)C(=O)N[C@@H](Cc1ccccc1)C(=O)N[C@H](C(=O)N[C@@H](CC(N)=O)C(=O)N[C@@H](Cc1ccc(O)cc1)C(=O)N[C@@H](CC(C)C)C(=O)N[C@@H](CC(C)C)C(=O)N[C@@H](C)C(=O)N[C@@H](CCC(N)=O)C(=O)NCC(=O)N1CCC[C@H]1C(=O)N[C@@H](CO)C(=O)N[C@@H](CO)C(=O)NCC(=O)N[C@@H](C)C(=O)N1CCC[C@H]1C(=O)N1CCC[C@H]1C(=O)N1CCC[C@H]1C(=O)N[C@@H](CO)C(N)=O)C(C)C
B2: Example 11 (peptide)
peptide: Y[dA]EGTFISDYSILLDKK([AEEA-AEEA-γGlu-C20 diacid])AQQDFVNWLLAQGPSSGAPPPS-NH2
modifications: N-terminus assumed
SMILES: CC[C@H](C)[C@H](NC(=O)[C@H](CO)NC(=O)[C@H](Cc1ccc(O)cc1)NC(=O)[C@H](CC(=O)O)NC(=O)[C@H](CO)NC(=O)[C@@H](NC(=O)[C@H](Cc1ccccc1)NC(=O)[C@@H](NC(=O)CNC(=O)[C@H](CCC(=O)O)NC(=O)[C@@H](C)NC(=O)[C@@H](N)Cc1ccc(O)cc1)[C@@H](C)O)[C@@H](C)CC)C(=O)N[C@@H](CC(C)C)C(=O)N[C@@H](CC(C)C)C(=O)N[C@@H](CC(=O)O)C(=O)N[C@@H](CCCCN)C(=O)N[C@@H](CCCCNC(=O)COCCOCCNC(=O)COCCOCCNC(=O)CC[C@H](NC(=O)CCCCCCCCCCCCCCCCCCC(=O)O)C(=O)O)C(=O)N[C@@H](C)C(=O)N[C@@H](CCC(N)=O)C(=O)N[C@@H](CCC(N)=O)C(=O)N[C@@H](CC(=O)O)C(=O)N[C@@H](Cc1ccccc1)C(=O)N[C@H](C(=O)N[C@@H](CC(N)=O)C(=O)N[C@@H](Cc1c[nH]c2ccccc12)C(=O)N[C@@H](CC(C)C)C(=O)N[C@@H](CC(C)C)C(=O)N[C@@H](C)C(=O)N[C@@H](CCC(N)=O)C(=O)NCC(=O)N1CCC[C@H]1C(=O)N[C@@H](CO)C(=O)N[C@@H](CO)C(=O)NCC(=O)N[C@@H](C)C(=O)N1CCC[C@H]1C(=O)N1CCC[C@H]1C(=O)N1CCC[C@H]1C(=O)N[C@@H](CO)C(N)=O)C(C)C
B3: Example 14 (peptide)
peptide: Y[dA]EGTFISDYSILLDKK([AEEA-AEEA-γGlu-C20 diacid])HQQDFVEWLLAQGPSSGAPPPS-NH2
modifications: N-terminus assumed
SMILES: CC[C@H](C)[C@H](NC(=O)[C@H](CO)NC(=O)[C@H](Cc1ccc(O)cc1)NC(=O)[C@H](CC(=O)O)NC(=O)[C@H](CO)NC(=O)[C@@H](NC(=O)[C@H](Cc1ccccc1)NC(=O)[C@@H](NC(=O)CNC(=O)[C@H](CCC(=O)O)NC(=O)[C@@H](C)NC(=O)[C@@H](N)Cc1ccc(O)cc1)[C@@H](C)O)[C@@H](C)CC)C(=O)N[C@@H](CC(C)C)C(=O)N[C@@H](CC(C)C)C(=O)N[C@@H](CC(=O)O)C(=O)N[C@@H](CCCCN)C(=O)N[C@@H](CCCCNC(=O)COCCOCCNC(=O)COCCOCCNC(=O)CC[C@H](NC(=O)CCCCCCCCCCCCCCCCCCC(=O)O)C(=O)O)C(=O)N[C@@H](Cc1c[nH]cn1)C(=O)N[C@@H](CCC(N)=O)C(=O)N[C@@H](CCC(N)=O)C(=O)N[C@@H](CC(=O)O)C(=O)N[C@@H](Cc1ccccc1)C(=O)N[C@H](C(=O)N[C@@H](CCC(=O)O)C(=O)N[C@@H](Cc1c[nH]c2ccccc12)C(=O)N[C@@H](CC(C)C)C(=O)N[C@@H](CC(C)C)C(=O)N[C@@H](C)C(=O)N[C@@H](CCC(N)=O)C(=O)NCC(=O)N1CCC[C@H]1C(=O)N[C@@H](CO)C(=O)N[C@@H](CO)C(=O)NCC(=O)N[C@@H](C)C(=O)N1CCC[C@H]1C(=O)N1CCC[C@H]1C(=O)N1CCC[C@H]1C(=O)N[C@@H](CO)C(N)=O)C(C)C
B4: Example 10 (peptide)
peptide: Y[dA]EGTFISDYSILLDKK([AEEA-AEEA-γGlu-C20 diacid])HQQDFVNWLLAGGPSSGAPPPS-NH2
modifications: N-terminus assumed
SMILES: CC[C@H](C)[C@H](NC(=O)[C@H](CO)NC(=O)[C@H](Cc1ccc(O)cc1)NC(=O)[C@H](CC(=O)O)NC(=O)[C@H](CO)NC(=O)[C@@H](NC(=O)[C@H](Cc1ccccc1)NC(=O)[C@@H](NC(=O)CNC(=O)[C@H](CCC(=O)O)NC(=O)[C@@H](C)NC(=O)[C@@H](N)Cc1ccc(O)cc1)[C@@H](C)O)[C@@H](C)CC)C(=O)N[C@@H](CC(C)C)C(=O)N[C@@H](CC(C)C)C(=O)N[C@@H](CC(=O)O)C(=O)N[C@@H](CCCCN)C(=O)N[C@@H](CCCCNC(=O)COCCOCCNC(=O)COCCOCCNC(=O)CC[C@H](NC(=O)CCCCCCCCCCCCCCCCCCC(=O)O)C(=O)O)C(=O)N[C@@H](Cc1c[nH]cn1)C(=O)N[C@@H](CCC(N)=O)C(=O)N[C@@H](CCC(N)=O)C(=O)N[C@@H](CC(=O)O)C(=O)N[C@@H](Cc1ccccc1)C(=O)N[C@H](C(=O)N[C@@H](CC(N)=O)C(=O)N[C@@H](Cc1c[nH]c2ccccc12)C(=O)N[C@@H](CC(C)C)C(=O)N[C@@H](CC(C)C)C(=O)N[C@@H](C)C(=O)NCC(=O)NCC(=O)N1CCC[C@H]1C(=O)N[C@@H](CO)C(=O)N[C@@H](CO)C(=O)NCC(=O)N[C@@H](C)C(=O)N1CCC[C@H]1C(=O)N1CCC[C@H]1C(=O)N1CCC[C@H]1C(=O)N[C@@H](CO)C(N)=O)C(C)C
B5: Example 13 (peptide)
peptide: Y[dA]EGTFISDYSILLDKK([AEEA-AEEA-γGlu-C20 diacid])HQQEFVNWLLAQGPSSGAPPPS-NH2
modifications: N-terminus assumed
SMILES: CC[C@H](C)[C@H](NC(=O)[C@H](CO)NC(=O)[C@H](Cc1ccc(O)cc1)NC(=O)[C@H](CC(=O)O)NC(=O)[C@H](CO)NC(=O)[C@@H](NC(=O)[C@H](Cc1ccccc1)NC(=O)[C@@H](NC(=O)CNC(=O)[C@H](CCC(=O)O)NC(=O)[C@@H](C)NC(=O)[C@@H](N)Cc1ccc(O)cc1)[C@@H](C)O)[C@@H](C)CC)C(=O)N[C@@H](CC(C)C)C(=O)N[C@@H](CC(C)C)C(=O)N[C@@H](CC(=O)O)C(=O)N[C@@H](CCCCN)C(=O)N[C@@H](CCCCNC(=O)COCCOCCNC(=O)COCCOCCNC(=O)CC[C@H](NC(=O)CCCCCCCCCCCCCCCCCCC(=O)O)C(=O)O)C(=O)N[C@@H](Cc1c[nH]cn1)C(=O)N[C@@H](CCC(N)=O)C(=O)N[C@@H](CCC(N)=O)C(=O)N[C@@H](CCC(=O)O)C(=O)N[C@@H](Cc1ccccc1)C(=O)N[C@H](C(=O)N[C@@H](CC(N)=O)C(=O)N[C@@H](Cc1c[nH]c2ccccc12)C(=O)N[C@@H](CC(C)C)C(=O)N[C@@H](CC(C)C)C(=O)N[C@@H](C)C(=O)N[C@@H](CCC(N)=O)C(=O)NCC(=O)N1CCC[C@H]1C(=O)N[C@@H](CO)C(=O)N[C@@H](CO)C(=O)NCC(=O)N[C@@H](C)C(=O)N1CCC[C@H]1C(=O)N1CCC[C@H]1C(=O)N1CCC[C@H]1C(=O)N[C@@H](CO)C(N)=O)C(C)C
B6: Example 12 (peptide)
peptide: Y[dA]EGTFISDYSILLDKK([AEEA-AEEA-γGlu-C20 diacid])AQQDFVNWLLAGGPSSGAPPPS-NH2
modifications: N-terminus assumed
SMILES: CC[C@H](C)[C@H](NC(=O)[C@H](CO)NC(=O)[C@H](Cc1ccc(O)cc1)NC(=O)[C@H](CC(=O)O)NC(=O)[C@H](CO)NC(=O)[C@@H](NC(=O)[C@H](Cc1ccccc1)NC(=O)[C@@H](NC(=O)CNC(=O)[C@H](CCC(=O)O)NC(=O)[C@@H](C)NC(=O)[C@@H](N)Cc1ccc(O)cc1)[C@@H](C)O)[C@@H](C)CC)C(=O)N[C@@H](CC(C)C)C(=O)N[C@@H](CC(C)C)C(=O)N[C@@H](CC(=O)O)C(=O)N[C@@H](CCCCN)C(=O)N[C@@H](CCCCNC(=O)COCCOCCNC(=O)COCCOCCNC(=O)CC[C@H](NC(=O)CCCCCCCCCCCCCCCCCCC(=O)O)C(=O)O)C(=O)N[C@@H](C)C(=O)N[C@@H](CCC(N)=O)C(=O)N[C@@H](CCC(N)=O)C(=O)N[C@@H](CC(=O)O)C(=O)N[C@@H](Cc1ccccc1)C(=O)N[C@H](C(=O)N[C@@H](CC(N)=O)C(=O)N[C@@H](Cc1c[nH]c2ccccc12)C(=O)N[C@@H](CC(C)C)C(=O)N[C@@H](CC(C)C)C(=O)N[C@@H](C)C(=O)NCC(=O)NCC(=O)N1CCC[C@H]1C(=O)N[C@@H](CO)C(=O)N[C@@H](CO)C(=O)NCC(=O)N[C@@H](C)C(=O)N1CCC[C@H]1C(=O)N1CCC[C@H]1C(=O)N1CCC[C@H]1C(=O)N[C@@H](CO)C(N)=O)C(C)C

These binders were tested against T1, human glucose-dependent insulinotropic … (assay: cell-based or functional assay).

Row | Binder | hGIPR cAMP Rel EC50
1 | B1 | 0.282 nM
2 | B2 | 0.0738 nM
3 | B3 | 0.34 nM
4 | B4 | 0.611 nM
5 | B5 | 0.129 nM
6 | B6 | 0.0911 nM

Each binder was assayed against human glucagon receptor (human, UniProt P47871 26-477) (assay: cell-based or functional assay).
Sequence of human glucagon receptor (P47871 26-477): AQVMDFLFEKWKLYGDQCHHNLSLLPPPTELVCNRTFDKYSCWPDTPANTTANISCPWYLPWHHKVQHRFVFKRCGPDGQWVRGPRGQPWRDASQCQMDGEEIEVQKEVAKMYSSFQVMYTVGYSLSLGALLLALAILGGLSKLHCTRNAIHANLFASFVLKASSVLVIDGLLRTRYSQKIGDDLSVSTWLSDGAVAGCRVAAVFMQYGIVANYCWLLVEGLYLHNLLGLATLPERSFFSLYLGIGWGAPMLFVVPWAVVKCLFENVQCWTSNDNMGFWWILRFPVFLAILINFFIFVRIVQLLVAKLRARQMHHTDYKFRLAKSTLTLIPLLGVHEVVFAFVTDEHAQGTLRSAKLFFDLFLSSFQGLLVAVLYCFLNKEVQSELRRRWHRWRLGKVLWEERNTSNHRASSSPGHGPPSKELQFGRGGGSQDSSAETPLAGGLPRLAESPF

Row | Binder | hGcgR cAMP Rel EC50
7 | B1 | > 5000 nM
8 | B2 | 445 nM
9 | B3 | > 5000 nM
10 | B4 | > 5000 nM
11 | B5 | > 5000 nM
12 | B6 | > 5000 nM

Each binder was assayed against human GLP-1 receptor (human, UniProt P43220 24-463) (assay: cell-based or functional assay).

Row | Binder | hGLP1R cAMP Rel EC50
13 | B1 | > 100 nM
14 | B2 | > 100 nM
15 | B3 | > 100 nM
16 | B4 | > 100 nM
17 | B5 | > 100 nM
18 | B6 | > 100 nM
